According to patent US20110236309A1:

Legend:
[1] = target: TGF-β1 (Homo sapiens (Human)) (UniProt P01137)
[2] = target: TGF-β2 (Homo sapiens (Human)) (UniProt P61812)
[3] = target: T1, TGF-β3 (Homo sapiens (Human)) (UniProt P10600)
T1 sequence: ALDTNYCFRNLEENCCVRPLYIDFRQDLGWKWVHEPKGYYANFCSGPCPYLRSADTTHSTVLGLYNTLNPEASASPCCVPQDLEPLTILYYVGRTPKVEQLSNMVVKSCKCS

pan-specific TGF-β neutralizing antibody 1D11 (R&D Systems)
IC50 for TGF-β1 (neutralization, Mv1Lu luciferase reporter cells) [1]: 1.43 nM
IC50 for TGF-β2 (neutralization, Mv1Lu luciferase reporter cells) [2]: 8.67 nM
IC50 for TGF-β3 (neutralization, Mv1Lu luciferase reporter cells) [3]: 0.029 nM
